Assay [1] addresses T1, rROBO4−ECD (ヒトROBO4細胞外領域ポリペプチド) (human, UniProt Q8WZ75 28-461).
T1 construct: It was cloned in pEF6/V5-His-TOPO; also called ヒトROBO4−ECD; rROBO4-ECD
T1 sequence: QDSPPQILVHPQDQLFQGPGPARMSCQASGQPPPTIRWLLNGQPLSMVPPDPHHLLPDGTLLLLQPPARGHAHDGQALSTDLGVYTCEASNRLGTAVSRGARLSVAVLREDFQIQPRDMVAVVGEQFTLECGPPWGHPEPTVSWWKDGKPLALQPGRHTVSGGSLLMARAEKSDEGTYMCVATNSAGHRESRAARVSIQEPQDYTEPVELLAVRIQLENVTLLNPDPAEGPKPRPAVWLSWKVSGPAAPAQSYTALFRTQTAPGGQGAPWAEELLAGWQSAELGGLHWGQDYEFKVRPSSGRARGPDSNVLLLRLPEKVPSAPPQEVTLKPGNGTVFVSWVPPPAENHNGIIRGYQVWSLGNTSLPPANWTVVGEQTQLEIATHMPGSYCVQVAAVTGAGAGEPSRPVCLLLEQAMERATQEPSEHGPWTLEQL
Nature of the assay: SPR, Biacore 3000; antibody captured by anti-human IgG on CM5 chip, rROBO4-ECD (0.1-200 nM) as analyte, 1:1 model. For orientation: SPR reads the build-up and loss of mass on a sensor chip optically.

Assay [2] addresses T2, マウスROBO4 (pCI−mROBO4導入細胞) (mouse, UniProt Q8C310 28-1012).
T2 construct: also called mouse ROBO4; mROBO4
T2 sequence: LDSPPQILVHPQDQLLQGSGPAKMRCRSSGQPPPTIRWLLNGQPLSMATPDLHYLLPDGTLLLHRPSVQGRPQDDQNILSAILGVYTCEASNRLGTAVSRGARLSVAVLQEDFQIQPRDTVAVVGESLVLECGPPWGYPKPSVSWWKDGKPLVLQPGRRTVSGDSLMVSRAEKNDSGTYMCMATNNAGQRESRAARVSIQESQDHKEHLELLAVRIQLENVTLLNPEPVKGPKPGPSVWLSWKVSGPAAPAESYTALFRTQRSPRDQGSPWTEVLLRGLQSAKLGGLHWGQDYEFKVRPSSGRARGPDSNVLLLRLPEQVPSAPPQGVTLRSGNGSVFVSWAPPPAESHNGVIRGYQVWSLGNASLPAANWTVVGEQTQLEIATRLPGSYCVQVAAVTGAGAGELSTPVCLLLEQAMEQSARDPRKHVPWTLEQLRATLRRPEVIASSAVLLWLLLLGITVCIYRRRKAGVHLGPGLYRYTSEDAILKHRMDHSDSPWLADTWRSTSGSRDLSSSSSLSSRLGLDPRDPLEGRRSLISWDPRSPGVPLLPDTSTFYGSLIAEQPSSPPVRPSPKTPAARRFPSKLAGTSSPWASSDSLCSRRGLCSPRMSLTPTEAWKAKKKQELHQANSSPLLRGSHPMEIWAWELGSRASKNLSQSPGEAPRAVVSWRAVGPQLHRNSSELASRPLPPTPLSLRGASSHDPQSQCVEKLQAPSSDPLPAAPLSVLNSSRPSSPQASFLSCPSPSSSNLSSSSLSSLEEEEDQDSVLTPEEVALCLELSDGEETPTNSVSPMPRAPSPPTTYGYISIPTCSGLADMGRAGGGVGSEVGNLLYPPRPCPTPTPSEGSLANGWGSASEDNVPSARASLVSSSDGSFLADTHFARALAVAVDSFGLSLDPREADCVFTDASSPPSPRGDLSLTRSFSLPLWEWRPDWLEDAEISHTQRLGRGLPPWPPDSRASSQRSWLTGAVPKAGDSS
Briefly: flow cytometry, transfected HEK293 cells. (In flow cytometry, cells or beads pass a laser one at a time.)

The target of assay [3] is T3, N末端FLAG−tag付加型ヒトROBO4細胞外領域ドメイン欠損体 hROBO4−210 (human, UniProt Q8WZ75 210-1007).
T3 construct: On HEK293 cells; also called pCI−FLAG−hROBO4−210; pCI−hROBO4−210
T3 sequence: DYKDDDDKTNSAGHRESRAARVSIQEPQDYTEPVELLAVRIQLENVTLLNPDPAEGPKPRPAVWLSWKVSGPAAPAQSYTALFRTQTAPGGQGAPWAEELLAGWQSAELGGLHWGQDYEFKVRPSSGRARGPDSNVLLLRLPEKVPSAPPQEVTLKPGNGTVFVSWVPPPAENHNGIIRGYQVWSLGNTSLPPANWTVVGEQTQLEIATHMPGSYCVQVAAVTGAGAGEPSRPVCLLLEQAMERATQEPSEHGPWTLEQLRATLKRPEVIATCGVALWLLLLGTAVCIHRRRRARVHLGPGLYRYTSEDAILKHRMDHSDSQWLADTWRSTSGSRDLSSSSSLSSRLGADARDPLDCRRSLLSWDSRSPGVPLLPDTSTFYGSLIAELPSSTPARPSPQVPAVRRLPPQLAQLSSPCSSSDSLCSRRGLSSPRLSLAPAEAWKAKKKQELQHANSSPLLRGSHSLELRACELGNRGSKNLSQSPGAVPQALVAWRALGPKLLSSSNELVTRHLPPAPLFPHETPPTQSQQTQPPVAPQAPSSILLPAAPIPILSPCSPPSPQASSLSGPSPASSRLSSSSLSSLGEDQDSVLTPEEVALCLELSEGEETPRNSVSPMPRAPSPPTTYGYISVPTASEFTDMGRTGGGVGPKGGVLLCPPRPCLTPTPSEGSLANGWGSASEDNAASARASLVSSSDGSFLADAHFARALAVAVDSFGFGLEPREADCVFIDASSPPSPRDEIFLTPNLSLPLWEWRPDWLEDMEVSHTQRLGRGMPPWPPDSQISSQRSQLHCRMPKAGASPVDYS
Nature of the assay: flow cytometry, transfected HEK293 cells.

Changes are numbered by the printed parent chain.

B1: ヒト化MAb1抗体 H−2143 (antibody, human IgG2, kappa, V domains shown)
VH: EVQLVESGGGLVQPGGSLRLSCAASGFTFSTYAMSWVRQAPGKRLEWVATISQGGTYTYYPDSVKGRFTISRDNAKNTLYLQMNSLRAEDTAVYYCARLIYYDYLDYWGQGTLVTVSS
VL: DIVMTQSPLSLPVTLGEPASISCRSSQSLENENKNLYLNWYLQKPGQSPQLLIYRVSNRFSGVPDRFSGSGSGTDFTLKISRVEAEDVGVYYCLQVTHVPWTFGPGTKVDIKR
notes: Humanised IgG2 / kappa; also called H-2143; hMAb1-H4 / hMAb1-L2
As for B1, in assay [1], the Kd – broadly, the concentration at which binding is half-saturated – is 1.7 nM. In addition, the binding result in assay [2] is reported as “no binding (tested: 10 μg/mL (method of 4)-3-2))”.

B2: ヒト化MAb1抗体 H−1143 (antibody, human IgG2, kappa, V domains shown)
VH: B1 VH with R44G
VL: B1 VL
notes: Humanised IgG2 / kappa; also called H-1143; hMAb1-H2 / hMAb1-L2
In assay [1], B2 came in with a Kd of 3.5 nM. In assay [2], the binding result was “no binding (tested: 10 μg/mL (method of 4)-3-2))”.

B3: ヒト化MAb1抗体 H−2140 (antibody, human IgG2, kappa, V domains shown)
VH: B1 VH
VL: B1 VL with E32S, K34G, L36T
notes: Humanised IgG2 / kappa; also called H-2140; hMAb1-H4 / hMAb1-L1
In assay [1], B3 showed a Kd of 1.8 nM. Also, in assay [2], the binding result is recorded as “no binding (tested: 10 μg/mL (method of 4)-3-2))”.

B4: 抗ROBO4マウスモノクローナル抗体 MAb1 (antibody, V domains shown)
VH: EVQLVESGGGLVKPGGSLKLSCAASGFTFSTYAMSWVRQTPEKRLEWVATISNGGTYTYYPDSVKGRFTISRDNAENTLYLQMSSLRSEDTAMYFCARLIYYDYLDYWGHGTTLTVSS
VL: DAVMTQTPLSLPVSLGDQASISCRSSQSLENSNGNTYLNWYFQKPGQSPQLLIYRVSNRFSGVLDRFSGSGSGTDFTLKISRVEAEDFGVYFCLQVTHVPWTFGGGTKLEIKR
notes: Mouse IgG1 (gamma 1) / kappa from a hybridoma; The constant regions are not in the listing; also called MAb1
On to B4, for which the binding result in assay [3] and in assay [2] was “no binding (tested: 10 μg/mL)” throughout.

For the origin of these results see patent JP2014141434A (dated 2014).
